Results: the RNAGym collection of RNA variant scans (doi:10.1073/pnas.2313332121)

B1: TPR t1 (parent)
chain: GACCAAUCUGCCCUCAGAGCUCGAGAACAUCUUCGGAUGCAGAGGAGGCAGGCUUCGGUGGCGCGAUAGCGCCAACGUCCUCAACCUCCAAUGCAUCCCACCACAUGAUGAUGCCUGAAGAGCCUUGGUUUUUUG

Variants of: B1
Test: polymerase ribozyme fitness, log enrichment relative to wild type (log ratio); higher = more active; in vitro selection for triplet polymerase activity
Procedure, shortened: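 A heterodimeric triplet polymerase ribozyme had each of its subunits mutagenized by PCR into a library, which was transcribed. One round of in vitro selection, done in triplicate, annealed each library with a biotinylated primer, its partner subunit and triplets, then incubated it frozen at −7 °C before gel excision of extended constructs, streptavidin-bead capture and RT-PCR. Fitness is the logarithm of genotype enrichment relative to wild-type enrichment, based on Illumina sequencing of inputs and outputs and inverse-variance-weighted replicate averages. A base-2 logarithm is used, and genotypes were kept only with ≥10 input reads and ≥1 read per output.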

| Variant | polymerase ribozyme fitness (log ratio) |
| --- | --- |
| GACCAAUCUGCCCUCAGAGCUCGAGAACAUCUUCGGAUGCAGAGGAGGCAGGCUUCGGUGGCGCGAUAGCGCCAACGUCCUCAACCUCCAAUGCAUCCCACCACAGGAUGAUGCCUGAAGAGCAUUGGUUUUUUG | 1.19 |
| GACCAAUCUGCCCUCAGAGCUCGAGAACAUCUUCGGAUGCAGAGGAGGCAGGCUUCGGUGGCGCGAUAGCGCCAACGUCCUCAACCUCCAAUGCAUCCCACCACAUCAUGAUGCCUGAAUAGCCUUGGUUUUUUG | -3.85 |
| GACCAAUCUGCCCUCAGAGCUCGAGAACAUCUUCGGAUGCAGAGGAGGCAGGCUUCGGUGGCGCGAUAGCGCCAACGUCCUCAACCUCCAAUGCAUCCCACCACAUUAUGAUUCCUGAAGAGCCUUGGUUUUUUG | -6.69 |
| GACCAAUCUGCCCUCAGAGCUCGAGAACAUCUUCGGAUGCAGAGGAGGCAGGCUUCGGUGGCGCGAUAGCGCCAACGUCCUCAACCUCCAAUGCAUCCCACCACACGAUGAUGCCUGAAGAGCCAUGGUUUUUUG | -0.83 |
| GACCAAUCUGCCCUCAGAGCUCGAGAACAUCUUCGGAUGCAGAGGAGGCAGGCUUCGGUGGCGCGAUAGCGCCAACGUCCUCAACCUCCAAUGCAUCCCACCACAUGGUGAUGCCUGAAAAGCGUUGGUUGUUUG | -0.578 |
| GACCAAUCUGCCCUCAGAGCUCGAGAACAUCUUCGGAUGCAGAGGAGGCAGGCUUCGGUGGCGCGAUAGCGCCAACGUCCUCAACCUCCAAUGCAUCCCACCACAUAAUGAUGCCUGAAUAGCCUUGGUUUUUUG | -4.71 |
| GACCAAUCUGCCCUCAGAGCUCGAGAACAUCUUCGGAUGCAGAGGAGGCAGGCUUCGGUGGCGCGAUAGCGCCAACGUCCUCAACCUCCAAUGCAUCCCACCACACGAUGAUGCCUGAAGAGCCUUGGUUUAUUG | -0.182 |
| GACCAAUCUGCCCUCAGAGCUCGAGAACAUCUUCGGAUGCAGAGGAGGCAGGCUUCGGUGGCGCGAUAGCGCCAACGUCCUCAACCUCCAAUGCAUCCCACCACAUAAUGAUGCCCGAAGAGCCUUGGUUUUUUG | -5.17 |
| GACCAAUCUGCCCUCAGAGCUCGAGAACAUCUUCGGAUGCAGAGGAGGCAGGCUUCGGUGGCGCGAUAGCGCCAACGUCCUCAACCUCCAAUGCAUCCCACCACAUGGUGCUGCCUGAAGAGCCUUGGUUUUUUG | -1.58 |
| GACCAAUCUGCCCUCAGAGCUCGAGAACAUCUUCGGAUGCAGAGGAGGCAGGCUUCGGUGGCGCGAUAGCGCCAACGUCCUCAACCUCCAAUGCAUCCCACCACAUAAUGAUGCCUGAAGAGCCUUGGUUUAUUG | -5.08 |
| GACCAAUCUGCCCUCAGAGCUCGAGAACAUCUUCGGAUGCAGAGGAGGCAGGCUUCGGUGGCGCGAUAGCGCCAACGUCCUCAACCUCCAAUGCAUCCCACCACAAGAUGAUGCCUGAAGAGCCUCGGUUUUUUG | -0.645 |
| GACCAAUCUGCCCUCAGAGCUCGAGAACAUCUUCGGAUGCAGAGGAGGCAGGCUUCGGUGGCGCGAUAGCGCCAACGUCCUCAACCUCCAAUGCAUCCCACCACACGAUGAUGCCAGAAGAGCCUUGGUUUUUUG | -2.94 |
| GACCAAUCUGCCCUCAGAGCUCGAGAACAUCUUCGGAUGCAGAGGAGGCAGGCUUCGGUGGCGCGAUAGCGCCAACGUCCUCAACCUCCAAUGCAUCCCACCACAGGAUGAUGCCUUAAGAGCCUUGGUUUUUUG | -4.18 |
| GACCAAUCUGCCCUCAGAGCUCGAGAACAUCUUCGGAUGCAGAGGAGGCAGGCUUCGGUGGCGCGAUAGCGCCAACGUCCUCAACCUCCAAUGCAUCCCACCACAUUAUGAUGCCUGAAGUGCCUUGGUUUAUUG | -2.5 |
| GACCAAUCUGCCCUCAGAGCUCGAGAACAUCUUCGGAUGCAGAGGAGGCAGGCUUCGGUGGCGCGAUAGCGCCAACGUCCUCAACCUCCAAUGCAUCCCACCACAUAAUGAUGCCUAAAGAGCCUUGGUUUUUUG | -5.11 |
| GACCAAUCUGCCCUCAGAGCUCGAGAACAUCUUCGGAUGCAGAGGAGGCAGGCUUCGGUGGCGCGAUAGCGCCAACGUCCUCAACCUCCAAUGCAUCCCACCACAUUAUGAUGCCUCAAGAGCCUUGGUUUUUUG | -4.7 |
| GACCAAUCUGCCCUCAGAGCUCGAGAACAUCUUCGGAUGCAGAGGAGGCAGGCUUCGGUGGCGCGAUAGCGCCAACGUCCUCAACCUCCAAUGCAUCCCACCACAGGAUGAAGCCUGAACAGCCUUGGUUUUUUG | -3.09 |
| GACCAAUCUGCCCUCAGAGCUCGAGAACAUCUUCGGAUGCAGAGGAGGCAGGCUUCGGUGGCGCGAUAGCGCCAACGUCCUCAACCUCCAAUGCAUCCCACCACAUGCUGAUGCCUGAAGAGACUUGGUUUUUUG | -4.12 |
| GACCAAUCUGCCCUCAGAGCUCGAGAACAUCUUCGGAUGCAGAGGAGGCAGGCUUCGGUGGCGCGAUAGCGCCAACGUCCUCAACCUCCAAUGCAUCCCACCACAAGAUGAUGCCCGAAGAGCCUUGGUUUUUUG | -0.567 |
| GACCAAUCUGCCCUCAGAGCUCGAGAACAUCUUCGGAUGCAGAGGAGGCAGGCUUCGGUGGCGCGAUAGCGCCAACGUCCUCAACCUCCAAUGCAUCCCACCACAUAAUGAUGUCUGAAGAGCCUUGGUUUUUUG | -3.83 |
| GACCAAUCUGCCCUCAGAGCUCGAGAACAUCUUCGGAUGCAGAGGAGGCAGGCUUCGGUGGCGCGAUAGCGCCAACGUCCUCAACCUCCAAUGCAUCCCACCACAUCAUGAUGCCUGAAGAGCCUUGGUUUUUUU | -5.77 |
